Assay results taken from publication PMC9943661, “8-Oxoguanine targeted by 8-oxoguanine DNA glycosylase 1 (OGG1) is central to fibrogenic gene activation upon lung injury”.

B1: G'1 (dsDNA)
DNA 1: CCCCAGGGTGAGCCCAGCTCAGACTATCATCCGGAAAGCCCCCAAAAGTCCCAGCCC
DNA 2: GGGCTGGGACTTTTGGGGGCTTTCCGGATGATAGTCTGAGCTGGGCTCACCCTGGGG
modifications: 8-oxoG at strand 1 position 6
B2: G'2 (dsDNA)
DNA 1: B1 DNA 1
DNA 2: B1 DNA 2
modifications: 8-oxoG at strand 2 position 6 from its 5' end
B3: G'3 (dsDNA)
DNA 1: B1 DNA 1
DNA 2: B1 DNA 2
modifications: 8-oxoG at strand 2 position 43 from its 5' end (opposite strand 1 position 15)
B4: G (dsDNA)
DNA 1: B1 DNA 1
DNA 2: B1 DNA 2

Experiments:
SMAD3 [1] = target: T1, SMAD3 (UniProt P84022 1-425); experiment: EMSA; 10 mM HEPES pH 7.9, 10 mM KCl, 1.5 mM MgCl2, 1 mM DTT, 5% glycerol, 20 nM Cy5-DNA, on ice; 6% PAGE at 4 C; settings: protein: recombinant; label: 5'-Cy5 on strand 1; blunt
OGG1 = OGG1 (UniProt O15527 1-345); experiment: as above; settings: protein: commercial; tags: His; label: 5'-Cy5 on strand 1; blunt
SMAD2 = SMAD2 (UniProt Q15796 1-467); experiment: EMSA; with OGG1 100 nM, SMAD2 800 nM; shift increased; 10 mM HEPES pH 7.9, 10 mM KCl, 1.5 mM MgCl2, 1 mM DTT, 5% glycerol, 20 nM Cy5-DNA, on ice; 6% PAGE at 4 C; settings: protein: recombinant; label: 5'-Cy5 on strand 1; blunt
SMAD3 [2] = target: T1, SMAD3; experiment: EMSA; OGG1 + TH2840 (no decrease); 10 mM HEPES pH 7.9, 10 mM KCl, 1.5 mM MgCl2, 1 mM DTT, 5% glycerol, 20 nM Cy5-DNA, on ice; 6% PAGE at 4 C; settings: protein: recombinant; label: 5'-Cy5 on strand 1; blunt

Chain of OGG1 (O15527 whole entry): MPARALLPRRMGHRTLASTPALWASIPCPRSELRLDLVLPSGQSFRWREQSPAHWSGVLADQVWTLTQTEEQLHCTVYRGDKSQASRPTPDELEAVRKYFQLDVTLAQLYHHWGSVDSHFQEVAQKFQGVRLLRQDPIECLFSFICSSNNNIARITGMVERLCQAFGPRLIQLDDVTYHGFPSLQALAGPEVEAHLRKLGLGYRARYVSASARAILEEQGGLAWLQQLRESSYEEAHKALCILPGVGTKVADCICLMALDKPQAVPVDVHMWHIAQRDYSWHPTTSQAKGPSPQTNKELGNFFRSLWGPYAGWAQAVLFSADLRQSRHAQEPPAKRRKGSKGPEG
T1 sequence (P84022 whole entry): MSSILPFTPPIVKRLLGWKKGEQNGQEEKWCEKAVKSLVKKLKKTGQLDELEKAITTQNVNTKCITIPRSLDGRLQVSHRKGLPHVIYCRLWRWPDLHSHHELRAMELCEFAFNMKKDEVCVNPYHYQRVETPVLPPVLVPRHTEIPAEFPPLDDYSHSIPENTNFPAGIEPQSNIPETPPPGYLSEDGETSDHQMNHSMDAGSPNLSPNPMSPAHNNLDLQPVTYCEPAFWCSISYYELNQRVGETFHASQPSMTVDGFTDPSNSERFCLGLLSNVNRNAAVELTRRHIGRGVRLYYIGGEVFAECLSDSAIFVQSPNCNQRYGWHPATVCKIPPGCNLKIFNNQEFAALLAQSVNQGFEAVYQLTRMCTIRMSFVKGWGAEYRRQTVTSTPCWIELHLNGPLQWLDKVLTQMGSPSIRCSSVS
Chain of SMAD2 (Q15796 whole entry): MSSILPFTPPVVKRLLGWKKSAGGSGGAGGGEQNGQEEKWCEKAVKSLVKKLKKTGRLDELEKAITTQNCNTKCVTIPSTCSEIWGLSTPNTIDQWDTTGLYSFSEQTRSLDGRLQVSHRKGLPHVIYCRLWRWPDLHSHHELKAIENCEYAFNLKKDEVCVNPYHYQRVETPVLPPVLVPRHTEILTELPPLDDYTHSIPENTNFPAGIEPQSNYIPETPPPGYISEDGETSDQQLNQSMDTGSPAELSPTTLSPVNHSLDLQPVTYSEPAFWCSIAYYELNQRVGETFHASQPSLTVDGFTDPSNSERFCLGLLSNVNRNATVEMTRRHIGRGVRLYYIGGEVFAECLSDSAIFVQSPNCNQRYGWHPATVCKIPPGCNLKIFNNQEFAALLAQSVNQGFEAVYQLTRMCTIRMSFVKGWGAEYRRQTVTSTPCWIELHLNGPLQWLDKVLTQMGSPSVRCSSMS

| Binder | binding result (SMAD3 [1]) | binding result (OGG1) | binding result (SMAD2) | binding result (SMAD3 [2]) |
| --- | --- | --- | --- | --- |
| B1 | binds | binds |  |  |
| B2 | binds | binds |  |  |
| B3 |  | binds | binds | binds |
| B4 | binds |  |  |  |
